This note sets out measurements from publication PMC8597827, “The effect of S427F mutation on RXRα activity depends on its dimeric partner†”.

The data set concerns the target RXRα WT (human, UniProt P19793 1-462). Description: EMSA; no ligand; two shifts; competed by 5x and 25x unlabeled DR1; 10 mM Tris HCl pH 8.0, 150 mM KCl, 0.5 mM EDTA, 0.1% Triton X-100, 12.5% glycerol, 0.2 mM DTT, 1 ug poly(dI-dC), 100 pmol probe in 20 uL; 10 min RT then 5 min 37 C; 5% PAGE in 0.5x TBE at 4 C. The following applies: protein: recombinant; chain copies: 2; blunt. On the technique in general: A gel shift assay detects complexes by their altered migration in electrophoresis.

Chain of RXRα WT (P19793 whole entry): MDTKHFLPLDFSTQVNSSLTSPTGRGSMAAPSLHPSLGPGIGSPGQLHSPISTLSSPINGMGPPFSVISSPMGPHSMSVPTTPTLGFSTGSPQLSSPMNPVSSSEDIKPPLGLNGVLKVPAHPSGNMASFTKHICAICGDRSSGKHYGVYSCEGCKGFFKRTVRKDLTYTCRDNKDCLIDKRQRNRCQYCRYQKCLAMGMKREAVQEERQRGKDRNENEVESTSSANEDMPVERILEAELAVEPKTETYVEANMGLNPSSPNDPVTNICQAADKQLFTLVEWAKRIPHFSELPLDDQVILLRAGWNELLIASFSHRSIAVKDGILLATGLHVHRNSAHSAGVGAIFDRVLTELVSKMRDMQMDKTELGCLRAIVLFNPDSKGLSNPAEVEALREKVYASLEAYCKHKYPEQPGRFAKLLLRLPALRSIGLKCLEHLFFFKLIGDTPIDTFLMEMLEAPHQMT

B1: DR1 (dsDNA)
DNA 1: TCGAGGGTAGGGGTCAGAGGTCACTCGTCGA
DNA 2: TCGACGAGTGACCTCTGACCCCTACCCTCGA
In the case of B1, the binding result was “binds”.
